Results: FireProtDB (doi:10.1002/pro.164)

Conditions: Vigna radiata; pH 7; 37 °C; GdnHCl; Fluorescence; Tris-HCl 10 mM; NaCl 100 mM; whole UniProt chain shown

B1: wild type, Q6T418 (protein)
chain: MERKTFSFLFLLLLVLASDVAVERGEARTCMIKKEGWGKCLIDTTCAHSCKNRGYIGGNCKGMTRTCYCLVNC
denaturant midpoint (higher = more stable): 4.17 M
